Literature values as cited in article PMC3050594.
Like-named read-outs stand apart in the source and are kept apart here.

What was measured:
[1] = biological target: RSV F glycoprotein (Human respiratory syncytial virus) (UniProt P03420)
[2] = biological target: RSV F glycoprotein (Human respiratory syncytial virus) (UniProt P03420); remark: listed apart in the source

Substance	Kd [1] [pM]	Kd [2] [pM]
palivizumab	1400	
motavizumab		35
